Laboratory results published in patent US20170298395A1, “AUTOTROPHIC HYDROGEN BACTERIA AND USES THEREOF” (Ohio State Innovation Foundation, priority 2011, published 2017).

Tested on: R. eutropha
Experiment: Relative promoter strength / gene expression in R. eutropha
Type: cell-based
Settings: autotrophic growth conditions
Protocol: The lac and tac promoters are E. coli promoters, but have been used to drive gene expression of other genes in R. eutropha. The pha promoter is a native R. eutropha promoter and drives expression of genes involved in polyhydroxybutyrate (PHB) production. The relative strength of these promoters in R. eutropha was determined. The pha promoter was 1.2 times stronger than the lac promoter and that the tac promoter was 2.1 times stronger than the lac promoter (1). The cbbM and cbbL promoters were also examined. The cbbM and cbbL promoters are strong promoters which drive expression of the genes that encode for RubisCO in Rhodosporilium rubrum/Rhodobacter sphaeroides/Rhodobacter capsulatus and R. eutropha, respectively. […] Each promoter was placed in the vector pBBR1MCS3, and the ability of these gene expression vectors was assessed (Table 4). The pBBR1 vector has Accession No. U02374 (4707 bp). The pBBR1MCS-3 vector has Accession No. U25059 (5228 bp). Plasmid pRPS-MCS3 (SEQ ID NO: 36) (see Journal of Molecular Biology, 331(3): 557-569 (2003)) derives from plasmid pBBR1-MCS3.
Vectors were made with the native cbbL and constitutive cbbL promoters. The cbbL promoter is native to R. eutropha and is highly expressed and regulated. […] To construct strains with a constitutive cbbL promoter, the lac promoter within the pBBR1MCS-3 vector was removed and replaced by the constitutive cbbL promoter. […]

B1: constitutive cbbL promoter: constitutive R. eutropha cbbL promoter, SEQ ID NO: 30 (nucleic acid)
DNA: GCAACTGGCGAAGGGTAAGGGCGCGCAGGAAGGACGACATGGGCGGTTGGGGGCGGCTTTGGATGGTCCCGTGATGTGCAGCTTGGTCCGCACTTAAGGGATTGCTTATACAGGGGCTAAGAATATCTGAATTGACATTATGTGGGTGGGCTTATATAATTGCATCAACGCAGCAGCCAAGACGCTCAACCACGCAAGGAGACAAGC
increase in gene expression: 2.4 fold
